The results in this text go back to US20060239990A1, “Protein Arginine N-Methyltransferase 2 (PRMT-2)” (priority 2003, published 2006).

One assay relates to Stat3. As to the kind of experiment: Leptin-stimulated Stat3 immunoprecipitation and immunoblotting (methylation, PRMT-2 association). Type of assay: cell-based, mouse. As to conditions: leptin 100 nM. The protocol: Immunoprecipitation of STAT3 was performed as follows. Cells treated with or without 100 nM mouse leptin for selected times were washed with phosphate buffered saline and lysed in Nonidet P-40 (NP-40) buffer (20 mM Tris-HCl, pH 8.0, 150 mM NaCl, 25 mM EDTA, 1.0% Triton-X, 0.1% SDS, 10% glycerol, 100 mM NaF, 100 mM Na3P2O7, 1.0% deoxycholic acid, 1 mM Na3VO4, 1× protease inhibitors cocktail; Roche Diagnostic Corp., Indianapolis, Ind.) or RIPA buffer (50 mM Tris-HCl, pH 8.0, 150 mM NaCl, 1% NP-40, 0.5% Na-deoxycholate, 0.1% SDS, 1× protease inhibitors cocktail). After the lysates were incubated to solubilize proteins for 30 min at 4° C., and before they were centrifuged at 15,000 rpm for 10 min at 4° C., the supernatants were rocked with either polyclonal anti-STAT3 antibodies (1:2,000) or monoclonal anti-Flag antibodies for 14 hr at 4° C., and then with protein G agarose for 3 hr at 4° C. For in vitro stimulation, the supernatants from extracted tissue homogenates were rocked with 2 μg polyclonal anti-IRS-1 antibody, and then protein G agarose for 3 hr at 4° C. The beads were washed three times with lysis buffer without proteinase inhibitors, solubilized in 15 μl 3×SDS-polyacrylamide gel electrophoresis (PAGE) buffer (187.5 mM Tris-HCl, 6% SDS, 30% glycerol, 150 mM dithiothreitol, 0.3% bromophenol blue, pH6.8), and subjected to the immunoblotting.
Immunoblotting was performed by boiling samples for 5 min at 95° C. followed by centrifugation for 1 min at 4° C. Aliquots of the supernatant were subjected to 7.5, 10% or 4-15% SDS-PAGE. Proteins in the gel were transferred to a nitrocellulose membrane by electroblotting. The membranes were treated with either anti-pTyr, anti-STAT3, anti-phospho STAT3, anti-α-metR, anti-IRS-1, anti-Flag, anti-phospho IRS-1, anti-arginine (mono- and di-methyl), or anti-β-actin antibodies followed by incubation with secondary antibodies conjugated with HRP. Immunoreactive proteins were detected either by ECL or by ECL plus system (Amersham Pharmacia Biotech). In some cases, bands were quantified using the NIH Image software (Image J version 1.2; National Institutes of Health, Bethesda, Md.). The figures are representative of 3 experiments.
(In western blotting, separated proteins are transferred to a membrane and probed.)

In another assay the test system is hypothalamic Stat3. As to the kind of experiment: Phospho-Stat3 immunohistochemistry of hypothalamus after leptin. Type of assay: in vivo, mouse. The note with it: wild-type mice, leptin 1.67 μg/g body weight peripheral. The protocol: After overnight fasting, brains of wild-type and PRMT2−/− mice treated with or without mouse leptin (1.67 μg/g body weight) for 90 min were removed immediately after decapitation, frozen in 2-methylbutane with a bed of crushed dry ice for 6 sec. 16-μm thick coronal sections were cut on a cryostat at −20° C. and were thaw-mounted on slides (K•D Medical Inc., Columbia, Md.). Sections were fixed with acetone for 10 min at 4° C. and then incubated in methanol for 30 min at −20° C. After treatment with 0.3% H2O2 in methanol for 30 min at room temperature to block endogenous peroxidase, sections were blocked in Tris-buffered saline (TBS)-Ca (100 mM Tris-HCl, pH 7.4, 150 mM NaCl, 1 mM CaCl2) containing 10% normal goat serum and 3% bovine serum albumin (BSA) and incubated with a rabbit anti-pStat3 (pY705) diluted in the same blocking solution as previously described above overnight at 4° C. On the next day sections were washed three time with TBS-Ca, incubated with a biotinylated secondary goat antibody in TBS-Ca containing 1% BSA for 1 hr at room temperature and then treated with ABC solution (Vector laboratories, Inc., Burlingame, Calif.) for 1 hr. In a final step, the signal was developed by DAB solution (Vector laboratories), giving a brown precipitate, dehydrated and mounted using Permount (Sigma-Aldrich). […]

The nature of assay [1]: Leptin sensitivity study in mice. Type of assay: in vivo, mouse. The note with it: for food intake: after administration of leptin. The protocol: To determine leptin sensitivity, 9- to 13-week-old mice, matched for similar body weight at both day 4 and day 0, were individually caged and body weight and food intake were measured once daily (5:30 pm) throughout the experiment. For the first 7 days, mice were injected intraperitoneally twice daily (12:00 pm and 6:00 pm) with PBS to establish a baseline of weight change and food intake. […] Body weight and food intake was measured once a day during the experiment.

Assay [2] has as its system hypothalamic POMC and NPY mRNA. Description: Leptin treatment, hypothalamic POMC and NPY mRNA by real-time PCR. The note with it: for weight loss: leptin 0.5 μg/g body weight. The assay is classed as in vivo, mouse. The procedure:
Mice in the 8-12 week of age allowed free access to chow and water were intraperitoneally injection for 3 days with either PBS or recombinant mouse leptin (Sigma) at a dose of 0.5 μg/g body weight twice a daily (9:00 am and 7:00 pm). Hypothalamus was isolated from the mice at 6 hr after leptin treatment and snap-frozen. Total hypothalamic RNA was isolated using Trizol (Invitrogen) according to the manufacturer's instructions. Total RNA was treated with ribonuclease-free deoxyribonuclease (DNase) I for 30 min using a commercially available kit (Invitrogen) to eliminate contamination of genomic DNA. The RNA samples were reverse transcribed with TaqMan Reverse Transcription Reagents (Applied Biosystems, Foster City, Calif.) and subjected to automated fluorescent RT-PCR on an ABI PRISM 7700 Sequence Detection System (Applied Biosystems). All TaqMan probes were labeled with the reporter fluorescein at the 5′-end and with the quencher tetramethylrhodamine at the 3′-end. The following oligonucleotides derived form the mouse POMC and NPY were synthesized and used as primers and probes for Real-time PCR: POMC (sense, 5′-[…]-3′ (SEQ ID NO:42), antisense, 5′-[…]-3′ (SEQ ID NO:43), probe, 5′-6FAM-[…]-TAMRA-3′, SEQ ID NO:44); NPY (sense, 5′-[…]-3′ (SEQ ID NO:45), antisense, 5′-[…]-3′ (SEQ ID NO:46) probes, 5′-6FAM-[…]-TAMRA-3′ (SEQ ID NO:47)). TaqMan Rodent GAPDH Control Reagents (Applied Biosystems) were used as a control primers and probe for each template. Each predicted RT-PCR product spanned an intron/exon junction. The reactions were incubated for 2 min at 50° C., followed by 10 min at 95° C., and then 40 cycles of 15 sec at 95° C. and 1 min at 60° C. Each RT-PCR reaction was performed in triplicate in a final volume of 20 μl and assessed by the comparative Ct (ΔΔCt) method (Applied Biosystems, ABI Prism 7700 Users Bulletin #2).
(Quantitative PCR measures a nucleic acid by following its amplification.)

B1: leptin: recombinant mouse leptin (Sigma-Aldrich Inc.) (protein, UniProt P41160 22-167, looked up)
Leptin: VPIQKVQDDTKTLIKTIVTRINDISHTQSVSAKQRVTGLDFIPGLHPILSLSKMDQTLAVYQQVLTSLPSQNVLQIANDLENLRDLLHLLAFSKSCSLPQTSGLQKPESLDGVLEASLYSTEVVALSRLQGSLQDILQQLDVSPEC
In the case of B1, in the assay on Stat3 (GT1-7 cells), the “PRMT-2 co-precipitated with STAT3” value is recorded as “enhanced that amount PRMT-2 that co-precipitated with STAT3”. The Stat3 methylation result in the assay with Stat3 (GT1-7 cells) is “remarkably increased at 5 min and sustained for 60 min”; in the assay on Stat3 (PRMT2−/− VSMC), “increased Stat3 methylation was not observed”; in the assay with Stat3 (wild-type VSMC), “evoked a transient methylation of Stat3 at 10 min”. Moreover, in the assay with hypothalamic Stat3, the “time of peak tyrosine phosphorylation of hypothalamic Stat3” value was 45 min. Further, the food intake in assay [1] (PRMT2−/− mice) is on record as approximately 92%; in assay [1] (wild-type mice) it was “did not alter food intake”. Besides, the “weight change” value is “continuously lost weight for the duration of the study” in assay [1] (PRMT2−/− mice, leptin 0.1 μg/g) and -0.158 g in assay [1] (wild-type mice, leptin 0.1 μg/g peripheral injection, for 5 days). Further, in assay [2] (PRMT2−/− mice, leptin 0.5 μg/g), the “higher level of hypothalamic POMC mRNA compared with leptin-treated wild-type mice” value is listed as approximately 90%. Moreover, in assay [2] (PRMT2−/− mice, leptin 0.5 μg/g), the “hypothalamic NPY mRNA expression” value was “significantly reduced”. In addition, the weight loss was -1.0 ± 0.2 g in assay [2] (PRMT2−/− mice) and -0.59 ± 0.29 g in assay [2] (wild-type mice). The “increase of hypothalamic POMC mRNA compared with untreated mice” value in assay [2] (wild-type mice, leptin 0.5 μg/g) is approximately 53%.
